Results as given in article PMC8780509.

Biological target: Recombinant human GCK (residues 16-465) fused to a N-terminal hexahistidine tag (human) (UniProt P35557)
UniProt P35557, sequence (P35557 16-465): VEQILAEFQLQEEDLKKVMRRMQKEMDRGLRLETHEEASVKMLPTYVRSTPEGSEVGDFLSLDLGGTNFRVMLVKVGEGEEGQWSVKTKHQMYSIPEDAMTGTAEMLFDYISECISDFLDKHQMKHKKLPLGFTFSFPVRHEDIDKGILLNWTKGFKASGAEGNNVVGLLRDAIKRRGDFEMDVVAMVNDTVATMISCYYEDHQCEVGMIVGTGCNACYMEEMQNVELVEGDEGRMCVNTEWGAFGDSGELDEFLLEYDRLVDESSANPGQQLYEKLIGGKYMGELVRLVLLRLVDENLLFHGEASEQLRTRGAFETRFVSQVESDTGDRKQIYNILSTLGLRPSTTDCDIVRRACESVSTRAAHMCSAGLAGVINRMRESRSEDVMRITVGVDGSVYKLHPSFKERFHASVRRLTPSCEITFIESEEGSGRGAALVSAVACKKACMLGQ

Work on “Purified NS5A-D2 protein (amino acids 250 to 342) (domain or fragment)” yielded a maximum velocity (Vmax) of purified GCK, increase in the presence of NS5A-D2 of 31%.
